# Results reported in patent publication US20110028697.
# T1: MazE (E. coli), MazE from Escherichia coli with His-Tag and Myc-Tag at the N-terminal end
# T1 chain: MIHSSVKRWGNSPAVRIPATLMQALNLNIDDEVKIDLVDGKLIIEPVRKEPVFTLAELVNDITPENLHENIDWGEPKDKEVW
# B1: MazF (E. coli), N-terminally His-Tagged MazF from Escherichia coli (protein)
# chain: MVSRYVPDMGDLIWVDFDPTKGSEQAGHRPAVVLSPFMYNNKTGMCLCVPCTTQSKGYPFEVVLSGQERDGVALADQVKSIAWRARGATKKGTVAPEELQLIKAKINVLIG
# Molecular target: T1, MazE (E. coli), MazE from Escherichia …
protein,measurement,value
B1,"degradation of the substrate MazG30 by the ribonuclease activity of MazF (E. coli), gel electrophoresis","When MazE and MazF were added to the substrate MazG30, degradation of the substrate MazG30 was inhibited and the band at the position corresponding to a 14mer polypeptide was decreased"
